How the values were obtained:
Details in all cases: remark: other sources report otherwise
hMPV083 (hMPV A), Q6WB98 = assay: BLI, 58C stress
hMPV079 (hMPV A), Q6WB98 = assay: BLI, 58C stress
[1] = target: hMPV A F WT Control (hMPV A), Q6WB98; assay: BLI, 58C stress
hMPV088 (hMPV A), Q6WB98 = assay: BLI, 58C stress
hMPV097 (hMPV A), Q6WB98 = assay: BLI, 58C stress
hMPV090 (hMPV A), Q6WB98 = assay: BLI, 58C stress
hMPV085 (hMPV A), Q6WB98 = assay: BLI, 58C stress
hMPV082 (hMPV A), Q6WB98 = assay: BLI, 58C stress
hMPV081 (hMPV A), Q6WB98 = assay: BLI, 58C stress
hMPV086 (hMPV A), Q6WB98 = assay: BLI, 58C stress
hMPV089 (hMPV A), Q6WB98 = assay: BLI, 58C stress
hMPV084 (hMPV A), Q6WB98 = assay: BLI, 58C stress
hMPV078 (hMPV A), Q6WB98 = assay: BLI, 58C stress
hMPV053 (hMPV A), Q6WB98 = assay: BLI, 53C stress
hMPV062 (hMPV A), Q6WB98 = assay: BLI, 53C stress
hMPV069 (hMPV A), Q6WB98 = assay: BLI, 53C stress
hMPV059 (hMPV A), Q6WB98 = assay: BLI, 53C stress
hMPV054 (hMPV A), Q6WB98 = assay: BLI, 53C stress
hMPV063 (hMPV A), Q6WB98 = assay: BLI, 53C stress
[2] = target: hMPV A F WT Control (hMPV A), Q6WB98; assay: BLI, 53C stress
hMPV055 (hMPV A), Q6WB98 = assay: BLI, 53C stress
hMPV067 (hMPV A), Q6WB98 = assay: BLI, 53C stress
hMPV047 (hMPV A), Q6WB98 = assay: BLI, 53C stress
hMPV077 (hMPV A), Q6WB98 = assay: BLI, 53C stress
hMPV045 (hMPV A), Q6WB98 = assay: BLI, 53C stress
hMPV046 (hMPV A), Q6WB98 = assay: BLI, 53C stress
hMPV044 (hMPV A), Q6WB98 = assay: BLI, 53C stress
hMPV052 (hMPV A), Q6WB98 = assay: BLI, 53C stress
hMPV061 (hMPV A), Q6WB98 = assay: BLI, 53C stress
hMPV075 (hMPV A), Q6WB98 = assay: BLI, 53C stress
hMPV049 (hMPV A), Q6WB98 = assay: BLI, 53C stress
hMPV071 (hMPV A), Q6WB98 = assay: BLI, 53C stress
hMPV050 (hMPV A), Q6WB98 = assay: BLI, 53C stress
hMPV060 (hMPV A), Q6WB98 = assay: BLI, 53C stress
hMPV048 (hMPV A), Q6WB98 = assay: BLI, 53C stress
hMPV043 (hMPV A), Q6WB98 = assay: BLI, 53C stress
hMPV058 (hMPV A), Q6WB98 = assay: BLI, 53C stress
hMPV068 (hMPV A), Q6WB98 = assay: BLI, 53C stress
hMPV066 (hMPV A), Q6WB98 = assay: BLI, 53C stress
[3] = target: hMPV A F WT Control (hMPV A), Q6WB98; assay: BLI, 68C stress
hMPV080 (hMPV A), Q6WB98 [4] = assay: BLI, 68C stress
[5] = target: hMPV A F WT Control (hMPV A), Q6WB98; assay: BLI, no stress
hMPV080 (hMPV A), Q6WB98 [6] = assay: BLI, no stress

B1: MPE8 mAb (antibody, V domains shown)
VH: EVQLVESGGGLVKPGGSLRLSCAASGFTFSSYSMNWVRQAPGKGLEWVSSISASSSYSDYADSAKGRFTISRDNAKTSLFLQMNSLRAEDTAIYFCARARATGYSSITPYFDIWGQGTLVTVSS
VL: QSVVTQTPSVSGAPGQRVTISCTGSSSNIGAGYDVHWYQQLPGTAPKLLIYDNNNRPSGVPDRFSASKSGTSASLAITGLQAEDEADYYCQSYDRNLSGVFGTGTKVTVL
hMPV083 (hMPV A), Q6WB98
  Response Shift: 0.768 nm
hMPV079 (hMPV A), Q6WB98
  Response Shift: 0.867 nm
[1]
  Response Shift: 0.006 nm
hMPV088 (hMPV A), Q6WB98
  Response Shift: 0.812 nm
hMPV097 (hMPV A), Q6WB98
  Response Shift: 0.918 nm
hMPV090 (hMPV A), Q6WB98
  Response Shift: 0.906 nm
hMPV085 (hMPV A), Q6WB98
  Response Shift: 0.757 nm
hMPV082 (hMPV A), Q6WB98
  Response Shift: 0.928 nm
hMPV081 (hMPV A), Q6WB98
  Response Shift: 0.945 nm
hMPV086 (hMPV A), Q6WB98
  Response Shift: 0.736 nm
hMPV089 (hMPV A), Q6WB98
  Response Shift: 0.917 nm
hMPV084 (hMPV A), Q6WB98
  Response Shift: 0.665 nm
hMPV078 (hMPV A), Q6WB98
  Response Shift: 0.939 nm
hMPV053 (hMPV A), Q6WB98
  Response Shift: -0.032 nm
hMPV062 (hMPV A), Q6WB98
  Response Shift: 0.006 nm
hMPV069 (hMPV A), Q6WB98
  Response Shift: -0.003 nm
hMPV059 (hMPV A), Q6WB98
  Response Shift: -0.039 nm
hMPV054 (hMPV A), Q6WB98
  Response Shift: -0.064 nm
hMPV063 (hMPV A), Q6WB98
  Response Shift: -0.008 nm
[2]
  Response Shift: -0.017 nm
hMPV055 (hMPV A), Q6WB98
  Response Shift: -0.078 nm
hMPV067 (hMPV A), Q6WB98
  Response Shift: -0.041 nm
hMPV047 (hMPV A), Q6WB98
  Response Shift: -0.051 nm
hMPV077 (hMPV A), Q6WB98
  Response Shift: -0.041 nm
hMPV045 (hMPV A), Q6WB98
  Response Shift: -0.025 nm
hMPV046 (hMPV A), Q6WB98
  Response Shift: -0.012 nm
hMPV044 (hMPV A), Q6WB98
  Response Shift: 0.534 nm
hMPV052 (hMPV A), Q6WB98
  Response Shift: -0.045 nm
hMPV061 (hMPV A), Q6WB98
  Response Shift: -0.059 nm
hMPV075 (hMPV A), Q6WB98
  Response Shift: -0.069 nm
hMPV049 (hMPV A), Q6WB98
  Response Shift: -0.065 nm
hMPV071 (hMPV A), Q6WB98
  Response Shift: -0.039 nm
hMPV050 (hMPV A), Q6WB98
  Response Shift: -0.014 nm
hMPV060 (hMPV A), Q6WB98
  Response Shift: -0.06 nm
hMPV048 (hMPV A), Q6WB98
  Response Shift: -0.056 nm
hMPV043 (hMPV A), Q6WB98
  Response Shift: 0.01 nm
hMPV058 (hMPV A), Q6WB98
  Response Shift: -0.05 nm
hMPV068 (hMPV A), Q6WB98
  Response Shift: 0.002 nm
hMPV066 (hMPV A), Q6WB98
  Response Shift: -0.003 nm
[3]
  Response Shift: 0.025 nm
hMPV080 (hMPV A), Q6WB98 [4]
  Response Shift: -0.075 nm
[5]
  Response Shift: 0.102 nm
hMPV080 (hMPV A), Q6WB98 [6]
  Response Shift: 0.787 nm

From patent US20240252614A1
